# In US8129345B2, “MUC1-IκB kinase complexes and their activities” (Dana-Farber Cancer Institute, Inc., priority 2006, dated 2012):
# Key:
# [1] = target: IKKγ (Homo sapiens, UniProt Q9Y6K9); assay: In vitro GST pull-down binding to IKKγ
# Method: FIG. 5B is a pair of photographs of immunoblots showing an interaction between MUC1-CD and IKKγ. GST- and GST-IKKγ bound to glutathione beads were incubated with purified MUC1-CD. The precipitates were immunoblotted (IB) with anti-MUC1-C antibodies. Commassie blue staining of the gel was performed to confirm that equal amounts of GST- and GST-IKKγ were used in the experiment. The molecular weights of proteins (as indicated on the left of the photographs) are expressed as kilodaltons (kDa).
# (§1) FIG. 5C is a pair of photographs of immunoblots. GST- and the indicated GST-MUC1-CD fusion proteins or fragments bound to glutathione beads were incubated with purified IKKγ. The precipitates were immunoblotted (IB) with anti-IKKγ antibody. Commassie blue staining of the gel was performed to confirm that equal amounts of GST- and GST-MUC1 proteins were used in the experiment. The molecular weights of proteins (as indicated on the left of the photographs) are expressed as kilodaltons (kDa).
# FIG. 5D is a pair of photographs of immunoblots. GST and the indicated GST-IKKγ fusion proteins bound to glutathione beads were incubated with MUC1-CD. The precipitates were immunoblotted (IB) with anti-MUC1-C antibody. Commassie blue staining of the gel was performed to confirm that equal amounts of GST- and GST-IKKγ proteins were used in the experiment. The molecular weights of proteins (as indicated on the left of the photographs) are expressed as kilodaltons (kDa).
# as §1, with “FIG. 11B” for “FIG. 5C”, “of an immunoblot and Coomassie blue stained gel. GST” for “of immunoblots. GST-”, “proteins (MUC1-CD and MUC1-CD(mSRM))” for “proteins or fragments”, “with” for “with purified”, “with an” for “with”, “and GST-MUC1-CD” for “and GST-MUC1”
# In vitro binding assays. Purified GST-MUC1-CD (glutathione s-transferase fused to the MUC1-CD polypeptide) was cleaved with thrombin to remove the GST moiety. GST, GST-IKKβ (DiDonato et al. (1997) Nature 388:548-554), GST-IKKβ (1-458), GST-IKKβ (458-756), GST-IKKγ (Prajapati et al. (2002) J. Biol. Chem. 277:24331-24339), GST-IKKγ (1-196) or GST-IKKγ (197-419) were then incubated with the MUC1-CD for 1 hour at 25° C. In other experiments, GST, GST-MUC1-CD, GST-MUC1-CD(1-45) or GST-MUC1-CD(46-72) were incubated with purified IKKβ or IKKγ. Adsorbates to glutathione-conjugated beads were analyzed by immunoblotting.
# [2] = target: T1, IKKβ (Homo sapiens, UniProt O14920); assay: In vitro GST pull-down binding to IKKβ; settings: GST pull-down with purified proteins, immunoblot
# T1 sequence (O14920 1-756): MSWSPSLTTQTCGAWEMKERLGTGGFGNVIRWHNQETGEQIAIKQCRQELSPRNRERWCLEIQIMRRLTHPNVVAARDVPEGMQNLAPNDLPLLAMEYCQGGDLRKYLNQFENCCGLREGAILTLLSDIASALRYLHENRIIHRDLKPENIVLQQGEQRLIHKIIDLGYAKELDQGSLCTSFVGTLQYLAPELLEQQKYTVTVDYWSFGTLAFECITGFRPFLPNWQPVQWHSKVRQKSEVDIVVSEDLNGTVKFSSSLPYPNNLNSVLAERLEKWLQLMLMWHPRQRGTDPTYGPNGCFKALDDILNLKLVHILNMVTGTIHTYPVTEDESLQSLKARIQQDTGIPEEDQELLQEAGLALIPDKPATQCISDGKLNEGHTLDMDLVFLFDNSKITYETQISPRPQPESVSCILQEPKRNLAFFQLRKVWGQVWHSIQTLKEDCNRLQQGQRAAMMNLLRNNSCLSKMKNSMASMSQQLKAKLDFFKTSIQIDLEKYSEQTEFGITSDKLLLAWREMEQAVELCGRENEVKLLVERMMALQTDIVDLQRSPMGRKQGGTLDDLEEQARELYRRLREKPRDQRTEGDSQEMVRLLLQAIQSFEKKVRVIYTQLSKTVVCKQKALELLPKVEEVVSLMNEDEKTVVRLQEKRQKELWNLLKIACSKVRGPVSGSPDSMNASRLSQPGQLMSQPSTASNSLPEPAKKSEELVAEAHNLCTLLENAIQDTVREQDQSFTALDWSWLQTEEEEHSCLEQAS
# Method: FIG. 4B is a pair of photographs of immunoblots. Recombinantly expressed, purified GST- and GST-IKKβ proteins bound to glutathione-agarose beads were incubated with purified MUC1-CD protein. The precipitates were immunoblotted (IB) with anti-MUC1-C antibodies. Input of the GST and GST-IKKβ proteins was assessed by Coomassie blue staining. The molecular weights of proteins (as indicated on the left of the photographs) are expressed as kilodaltons (kDa).
# FIG. 4C (top panel) is a schematic diagram of the amino acid sequence of (i) the MUC1-cytoplasmic domain (MUC1-CD) [amino acids 1-72; SEQ ID NO:2]; (ii) the MUC1-CD fragment [amino acids 1-45; SEQ ID NO:3]; and (iii) the MUC-CD fragment [amino acids 46-72; SEQ ID NO:4]. FIG. 4C (bottom panel) is a photograph of an immunoblot and a photograph of a Coomassie blue-stained electrophoretic gel. GST- and the indicated GST-MUC1-CD fusion proteins bound to glutathione beads were incubated with purified IKKβ. The precipitates were immunoblotted with anti-IKKβ. Input of the GST and GST-MUC1-CD fusion proteins was assessed by Coomassie blue staining. The molecular weights of proteins (as indicated on the left of the photographs) are expressed as kilodaltons (kDa).
# FIG. 11A is a pair of photographs of an immunoblot and Coomassie-blue stained gel. GST and the indicated GST-MUC1-CD fusion proteins (MUC1-CD and MUC1-CD(mSRM)) bound to glutathione beads were incubated with IKKβ. The precipitates were immunoblotted (IB) with an anti-IKKβ antibody. Commassie blue staining of the gel was performed to confirm that equal amounts of GST- and GST-MUC1-CD proteins were used in the experiment. The molecular weights of proteins (as indicated on the left of the photographs) are expressed as kilodaltons (kDa).
# In vitro binding assays. Purified GST-MUC1-CD (glutathione s-transferase fused to the MUC1-CD polypeptide) was cleaved with thrombin to remove the GST moiety. […] Adsorbates to glutathione-conjugated beads were analyzed by immunoblotting.
substance,measurement,setting,value
"MUC1-CD: 72 amino acid cytoplasmic domain of human MUC1, SEQ ID NO:2",binding to IKKγ,"[1]; GST pull-down with purified proteins, immunoblot",binds to purified IKKγ
same,region of IKKγ bound by MUC1-CD,[1]; GST-IKKγ (1-196) and GST-IKKγ (197-419) incubated with MUC1-CD,binds to the C-terminal region (197-419) of IKKγ
same,binding to IKKβ,[2],interact directly
